± gives the uncertainty stated by the source.
Test: protein stability index of a GFP-peptide fusion (yeast GPS) (PSI 1-4); higher = more stable; sorted into four equal gates, so the index is relative within each strain
Summary of the method: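 For each peptide, the protein stability index sums the read frequency in every gate after multiplying it by the gate number. Read frequencies came from plasmids that were PCR-amplified from each gate and Illumina-sequenced, with reads assigned to strains by barcodes. The gates were four equal bins of GFP/Cherry fluorescence ratio applied to mid-log yeast in leucine-free medium carrying a pooled library of tiled 17-residue yeast protein peptides fused downstream of GFP on a Cherry-expressing plasmid.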

| Sequence | protein stability index (doa10∆) | protein stability index (pdr5∆) | protein stability index (san1∆) | protein stability index (ubr1∆) |
| --- | --- | --- | --- | --- |
| SYTDAQDKSKKIMNVTT [YMR129W/POM152] | 2.97 ± 0.1 | 2.66 ± 0.11 | 2.88 ± 0.056 | 3.03 ± 0.048 |
| SYQKLLKNYVLNELHPT [PRP8] | 1.62 ± 0.039 | 1.57 ± 0.034 | 1.55 ± 0.057 | 1.75 ± 0.033 |
| SVNKNKRQAYAVSEKAG [RPL4A] | – | 1.69 ± 0.17 | – | 3.29 ± 0.13 |
| IEQFAMRRNSKILNIIK [POP5] | 3.08 ± 0.084 | 2.88 ± 0.077 | 2.86 ± 0.076 | 3.23 ± 0.07 |
| KEISARRYKLLTATPNS [POP1] | 2.1 ± 0.051 | 2.45 ± 0.061 | 2.32 ± 0.06 | 2.5 ± 0.051 |
| EVKLKASLKKMEETEQK [SMC3] | – | 3.16 ± 0.15 | 3.2 ± 0.17 | 3.53 ± 0.25 |
| TLVAQNLKQANNVAYGK [SMC4] | 2.8 ± 0.1 | 2.92 ± 0.089 | 2.87 ± 0.062 | 3 ± 0.067 |
| DRGIANIRNNIESQNLD [SRB4] | 3.12 ± 0.14 | 3.34 ± 0.12 | 2.98 ± 0.11 | 3.07 ± 0.067 |
| KFNAAPEENATEGPSDK [SNF12] | 3.1 ± 0.16 | 3.58 ± 0.14 | 3.26 ± 0.081 | 3.26 ± 0.098 |
| KKSKNGTISKTGKKNKV [SRP14] | 2.93 ± 0.11 | 3.26 ± 0.089 | 3.14 ± 0.059 | 3.51 ± 0.057 |
| FNATVDETKGFDDNDSG [MED2] | 3.14 ± 0.09 | 3.17 ± 0.078 | 3.25 ± 0.066 | 3.29 ± 0.078 |
| MTDIWNTLIPESSLTIS [ECM29] | 2.22 ± 0.064 | 2.46 ± 0.054 | 2.14 ± 0.1 | 2.87 ± 0.058 |
| TIEKDKMKIQETISKLN [SMC2] | 1.71 ± 0.058 | 1.69 ± 0.044 | 1.94 ± 0.12 | 1.53 ± 0.038 |
| SKTVVTLSEPVQGELKP [FAS1] | 2.56 ± 0.05 | 2.73 ± 0.052 | 2.5 ± 0.053 | 2.18 ± 0.033 |
| NKANIQALIHGLNRHYY [RPN11] | 2.12 ± 0.082 | 2.52 ± 0.073 | 2.21 ± 0.095 | 2.37 ± 0.073 |
| TRAQYLAFAKLVHSEYL [SRP68] | 1.58 ± 0.08 | 1.87 ± 0.063 | 1.47 ± 0.094 | 1.79 ± 0.052 |
| LVHTQIRKTPLAQKKAH [RPL3] | 1.37 ± 0.057 | 1.38 ± 0.049 | 1.65 ± 0.069 | 1.63 ± 0.034 |
| GILGNKAQAKMDKRAKT [RPL8B] | 3.58 ± 0.12 | 3.48 ± 0.15 | 3.4 ± 0.058 | 3.63 ± 0.079 |
| ATPFRQWFEAHYGQTLG [RPS8A] | 2.436 ± 0.022 | 2.787 ± 0.024 | 2.7 ± 0.021 | 2.573 ± 0.019 |
| AAVIALGFVLLRDYTTV [RPN2] | 1.59 ± 0.066 | 1.21 ± 0.081 | 1.22 ± 0.082 | 1.27 ± 0.048 |
| TDDADDHINWEHIKQDY [NSL1] | 3.4 ± 0.1 | 3.4 ± 0.12 | 3.27 ± 0.13 | 3.4 ± 0.082 |
| SGTKSEVLTYVNYLISN [YJL039C/NUP192] | 2.52 ± 0.053 | 2.5 ± 0.056 | 2.54 ± 0.041 | 2.58 ± 0.044 |
| TSTNGDSENNEENSSSN [RGR1] | 2.64 ± 0.18 | 3.18 ± 0.11 | 3.36 ± 0.11 | 2.95 ± 0.086 |
| MLSFCPSCNNMLLITSG [RPC11] | 1.26 ± 0.082 | 2.97 ± 0.13 | – | 2.83 ± 0.072 |
| LQRKDYTSIVQCCEFMT [YML103C/NUP188] | 1.48 ± 0.059 | 1.62 ± 0.048 | 2.05 ± 0.079 | 1.9 ± 0.044 |
| YSSAPLRTVKEVQFGLF [RPO21] | – | 2.27 ± 0.2 | – | – |
| AKKLIQSLPPTLKVNRL [RPL38] | 2.15 ± 0.039 | 2.2 ± 0.039 | 2.02 ± 0.048 | 2.27 ± 0.036 |

| Sequence | protein stability index (doa10∆) | protein stability index (pdr5∆) | protein stability index (san1∆) | protein stability index (ubr1∆) |
| --- | --- | --- | --- | --- |
| SEHDKKRLSAALSKFLT [YML103C/NUP188] | 2.99 ± 0.09 | 3.08 ± 0.09 | 3.06 ± 0.068 | 3.13 ± 0.071 |
| PGMPNMPGMPNMPGMPK [SRP54] | 3.37 ± 0.15 | 3.22 ± 0.095 | 3.21 ± 0.25 | 3.3 ± 0.071 |
| DDHSQVINPQQLLKGLS [DSN1] | 3.17 ± 0.1 | 2.98 ± 0.084 | 3.03 ± 0.057 | 3.01 ± 0.068 |
| KIDKPIRTQVNTGGESV [RGR1] | 2.4 ± 0.06 | 2.4 ± 0.044 | 2.32 ± 0.052 | 2.25 ± 0.036 |
| ADVLSILAMTYSENGKH [RPN1] | 1.64 ± 0.066 | 1.9 ± 0.1 | 1.45 ± 0.11 | 1.36 ± 0.052 |
| SGEDVIIGKTTPISPDE [RPB2] | 3.26 ± 0.21 | – | 3.49 ± 0.083 | 3.35 ± 0.085 |
| FDFIKDNETPSKKTSPK [YOR098C/NUP1] | 2.25 ± 0.051 | 2.87 ± 0.043 | 2.6 ± 0.063 | 2.96 ± 0.038 |
| VEDVSQNAADLQQICRV [RPL9A] | 2.96 ± 0.096 | 3.42 ± 0.047 | 2.76 ± 0.093 | 3.03 ± 0.051 |
| ISKQKSKLDYIFKDKEK [SMC1] | 2.78 ± 0.14 | 2.71 ± 0.12 | 2.89 ± 0.15 | 3.29 ± 0.091 |
| DGLEKAAFNGVTFKDKY [FAS2] | 1.94 ± 0.083 | 1.57 ± 0.096 | 1.85 ± 0.14 | 2.09 ± 0.12 |
| HVESDKITAKTQHEEEE [IRR1] | 2.85 ± 0.064 | 2.96 ± 0.088 | 3.09 ± 0.092 | 2.81 ± 0.11 |
| IVALSSEEINQYVTQIE [PRE6] | 3.1 ± 0.053 | 2.97 ± 0.053 | 3.11 ± 0.037 | 3.05 ± 0.042 |
| IPRNSPLSDLKKRSQAK [RPC82] | 2.65 ± 0.26 | 3.17 ± 0.22 | – | – |
| SNRLHPPDIHPNLGPQL [GRR1] | 3.12 ± 0.074 | 3.09 ± 0.059 | 3.01 ± 0.054 | 2.98 ± 0.049 |
| QLNSRAVAVVVDPIQSV [RPN11] | 1.27 ± 0.067 | 1.65 ± 0.076 | 1.43 ± 0.12 | 1.48 ± 0.051 |
| QTANEKHITVRLTAKRL [SRP14] | 2.75 ± 0.1 | 2.91 ± 0.09 | 2.94 ± 0.082 | 2.92 ± 0.065 |
| NHASMDVYNRELDEHTT [BRR2] | 3.27 ± 0.068 | 3.16 ± 0.063 | 3.26 ± 0.047 | 3.26 ± 0.056 |
| RSCVSNSNENGTLERIK [RPN4] | 2.98 ± 0.07 | 3.07 ± 0.077 | 2.54 ± 0.065 | 2.95 ± 0.057 |
| QINKAQILENYNALFQQ [YJL039C/NUP192] | 2.81 ± 0.068 | 3.12 ± 0.058 | 2.73 ± 0.065 | 3.03 ± 0.047 |
| NHGGSLGKYDLTVIEKL [SRP68] | – | – | 3.53 ± 0.14 | 3.41 ± 0.29 |
| RVVVPQALRVLRLKPGR [RPL16B] | 1.24 ± 0.087 | 1.58 ± 0.06 | 1.36 ± 0.12 | 1.77 ± 0.1 |
| TDLIREKTMMTFGKPEE [YCS4] | 3.14 ± 0.053 | 3.31 ± 0.062 | 3.19 ± 0.041 | 3.11 ± 0.05 |
| ANDEEAYIKLLDQTKDT [SNF2] | 2.98 ± 0.088 | 3.21 ± 0.072 | 3.4 ± 0.069 | 3 ± 0.1 |
| KILEQFEYVLYPSKTLK [FAS2] | 3.01 ± 0.078 | 2.93 ± 0.069 | 2.97 ± 0.077 | 3.15 ± 0.064 |
| KRVTKVKRLLFTIRGFK [MTW1] | 2.34 ± 0.057 | 2.52 ± 0.043 | 2.14 ± 0.057 | 2.54 ± 0.042 |
| ANDFQLTIVTCKQFPKL [SRB8] | 1.83 ± 0.047 | 1.96 ± 0.041 | 1.82 ± 0.073 | 1.82 ± 0.034 |
| HHWLLDKLSGCYAPRPS [RPS4A] | 2.21 ± 0.063 | 1.94 ± 0.062 | 1.89 ± 0.083 | 1.42 ± 0.045 |
